Here are results for one molecule from PMC3472557, “Structural Basis for ASPP2 Recognition by the Tumor Suppressor p73” (Journal of Molecular Biology, 2012).

For the test, the target named is T1, ankyrin repeat and SH3 domains of human ASPP2 (residues P891–A1128) (human, UniProt Q13625 891-1128).
T1 construct: ASPP2 (53BP2), human, ankyrin repeat and SH3 domains, residues P891-A1128, UniProt Q13625; cloned into pCOEX-LIC1; The limits are stated for the crystallised construct; also called 53BP2; source: E. coli BL21(DE3) R3 pRARE, purified (nickel-Sepharose, TEV protease, HiTrap Q, Superdex 200); not shown: His6, N-terminal, cleaved
T1 sequence (looked up): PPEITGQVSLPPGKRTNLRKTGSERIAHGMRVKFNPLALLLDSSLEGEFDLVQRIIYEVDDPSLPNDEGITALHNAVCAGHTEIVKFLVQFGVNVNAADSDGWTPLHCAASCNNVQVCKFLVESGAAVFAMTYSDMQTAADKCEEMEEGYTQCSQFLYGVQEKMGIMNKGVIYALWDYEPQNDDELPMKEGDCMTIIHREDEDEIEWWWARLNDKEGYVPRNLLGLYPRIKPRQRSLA
Briefly: native gel or EMSA; 20 uM ASPP2 with decreasing concentrations of p73 112-315; 4 °C overnight; 50 mM sodium phosphate, pH 7.2, 50 mM NaCl, 5 mM DTT, 50 mM L-arginine, 50 mM L-glutamate; 10% polyacrylamide gel in Tris-glycine, pH 8.3, Coomassie stain. The conditions noted are these: both partners purified. Background: In EMSA bound probe runs differently from free probe, usually more slowly.

B1: p73 DBD (p73 amino acids 112–315) (domain or fragment, human, UniProt O15350 112-315, looked up)
chain: APVIPSNTDYPGPHHFEVTFQQSSTAKSATWTYSPLLKKLYCQIAKTCPIQIKVSTPPPPGTAIRAMPVYKKAEHVTDVVKRCPNHELGRDFNEGQSAPASHLIRVEGNNLSQYVDDPVTGRQSVVVPYEPPQVGTEFTTILYNFMCNSSCVGGMNRRPILIIITLEMRDGQVLGRRSFEGRICACPGRDRKADEDHYREQQAL
notes: It may be a misprint for 112-311; source: E. coli BL21(DE3) R3 pRARE, purified (said of all proteins)
For the molecule B1, the binding result is recorded as “binds”.
